According to patent US6569833B1, “Cyclin dependent kinase binding peptides” (Cyclacel Limited, priority 1995, dated 2003):

T1: peptide 6 with residue 94 substituted by alanine
T1 chain: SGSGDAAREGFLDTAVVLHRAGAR

T2: peptide 6 (amino acids 84 to 103 of p16), biotinylated via N-terminal SGSG linker
T2 chain: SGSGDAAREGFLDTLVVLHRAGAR

T3: peptide 6 with aspartic acid 92 substituted by alanine
T3 chain: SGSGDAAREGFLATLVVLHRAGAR

B1: cdk4 (protein)
chain: MATSRYEPVAEIGVGAYGTVYKARDPHSGHFVALKSVRVPNGGGGGGGLPISTVREVALLRRLEAFEHPNVVRLMDVCATSRTDREIKVTLVFEHVDQDLRTYLDKAPPPGLPAETIKDLMRQFLRGLDFLHANCIVHRDLKPENILVTSGGTVKLADFGLARIYSYQMALTPVVVTLWYRAPEVLLQSTYATPVDMWSVGCIFAEMFRRKPLFCGNSEADQLGKIFDLIGLPPEDDWPRDVSLPRGAFPPRGPRPVQSVVPEMEESGAQLLLEMLTFNPHKRISAFRALQHSYLHKDEGNPE

Assays:
[1] = target: T4, cdk6 (Homo sapiens, UniProt Q00534); experiment: Peptide precipitation of in vitro translated 35S-labelled cdk6 from reticulocyte lysate; assay type: binding; settings: biotinylated peptide on streptavidin agarose beads, densitometry
T4 construct: host or cells: coupled in vitro transcription/translation in rabbit reticulocyte lysate
Protocol: (§1) A 20 aa peptide library with a 5 aa overlap of p16 (apart from the first 8 N-terminal residues) was synthesised adding a SGSG linker to the N-terminus to which a biotin group was coupled. The alanine substitution series of peptide 6 was synthesised in the same way. The peptides were coupled to streptavidin immobilised on agarose beads and washed 4 times in PBS before incubating for 1 hour on ice with rabbit reticulocyte lysate (Promega) containing ^35S-methionine labelled cdk4 or cdk6. The beads were washes 4 times in 1.2×PBS with 0.2% Triton X-100 before addition of SDS loading buffer and applied to 12% SDS polyacrylamide gels. The gels were exposed to an autoradiography film and the bands corresponding to cdk4 and cdk6 were analysed by densitometry.
(§2) To study the binding of peptides to cdk4 and cdk6 we expressed the proteins in a coupled in vitro reticulocyte translation system in the presence of ^35S labelled methionine. A biotin group coupled to a Ser-Gly-Ser-Gly-linker at the N-terminus of the peptides was coupled to streptavidin coated agarose beads and incubated with the cell lysates.

[2] = target: T5, cdk4 (Homo sapiens, UniProt P11802); experiment: Peptide precipitation of in vitro translated 35S-labelled cdk4 from reticulocyte lysate; assay type: binding; settings: biotinylated peptide on streptavidin agarose beads, densitometry
T5 construct: host or cells: coupled in vitro transcription/translation in rabbit reticulocyte lysate
Protocol: as §1, §2

[3] = target: T6, cdk4-cyclin D (Homo sapiens, UniProt P11802); experiment: pRb phosphorylation in vitro by Sf9 lysates containing cdk4 and cyclin D; assay type: biochemical; parameters: dose or concentration left out as unconfirmed; settings: full length Rb protein
T6 construct: made in house; host or cells: Sf9 insect cells infected with baculovirus (separate crude lysates for cdk4 and cyclin D, mixed in the assay)
Protocol: Peptides were incubated at a concentration of […] in a buffer containing 50 mM Hepes pH 7.4, 10 mM MgCl2, 2.5 mM EGTA, 1 mM DTT, 10 mM β-glycerophosphate, 1 mM NaF and 1 mM Na3VO4 and […] of extract from Sf9 insect cells infected with human cdk4-expressing baculovirus lysed in 10 mM Hepes pH 7.4, 10 mM NaCl, 1 mM EDTA and 0.5 mM PMSF. The mixture was incubated for 60 minutes on ice. Human cyclin D containing Sf9 lysate ([…]) prepared as above was added together with 0.6 mg of purified recombinant full length Rb protein and 2.5 mM ^32P ATP in a final concentration of […] ATP and incubated for 10 minutes at +30° C., the reaction was terminated by addition of SDS loading buffer and loaded onto 8% SDS polyacrylamide gels. The gels were either exposed to autoradiographic film (FIG. 2A) or the levels of pRb phosphorylation were estimated by a Phosphoimager (FIG. 2B).

[4] = target: cdk4 (human, UniProt P11802 1-303); experiment: cell-based or functional assay
[5] = system: HaCaT cells; experiment: Cell cycle inhibition: S-phase entry of serum-starved cells by BrdU incorporation; assay type: cell-based, human; settings: 10 μM peptide concentration
Protocol: Cells were synchronised in G0 by serum starvation for 72 hours before serum and 10 μM BrdU were added. […] The data presented show % inhibition of cells entering S-phase after incubation with peptide 6 coupled to Penetratin in relation to cells incubated with serum only.
A cysteine residue was added to the C-terminus of peptide 6 and used for coupling to the 16 amino acids long Penetratin peptide (amino acid sequence RQIKIWFQNRRMKWKK)(SEQ ID NO:3) of the Antennapedia homeodomain (24) (Appligen) by means of a disulzhide bond. Cells were seeded on cover slips prior to starvation for 72 hours in DMEM medium without FCS. The medium was substituted by DMM containing 10% FCS and BrdU. The coupled peptides were added at different time points after serum stimulation. The number of cells entering S-phase was determined by estimating the numbers of cells incorporating BrdU at 24 hours by fixing the cells on cover slips in acetone/methanol (1:1), incubating in 1M HCl for 30 minutes, washing 6 times in PBS and then incubating with anti-BrdU monoclonal antibody and Texas Red conjugated secondary antibody and mounted in Mowiol containing Hoescht. At least six different areas on three different cover slips were counted for each single experiment which was repeated at least two times. The values presented in FIG. 3A show one representative experiment.

[6] = target: T6, cdk4-cyclin D; experiment: pRb phosphorylation in vitro by Sf9 lysates containing cdk4 and cyclin D; assay type: biochemical; settings: for block of cdk4-cyclin D dependent pRb phosphorylation: 50 μM peptide, dilution series
[7] = target: peptide 10 of the p16 20 aa peptide library
[8] = target: peptide 1 of the p16 20 aa peptide library
[9] = target: T1, peptide 6 with residue 94 substituted …
[10] = target: T2, peptide 6 (amino acids 84 to 103 of …)
[11] = target: T3, peptide 6 with aspartic acid 92 …

T4 sequence (Q00534 whole entry): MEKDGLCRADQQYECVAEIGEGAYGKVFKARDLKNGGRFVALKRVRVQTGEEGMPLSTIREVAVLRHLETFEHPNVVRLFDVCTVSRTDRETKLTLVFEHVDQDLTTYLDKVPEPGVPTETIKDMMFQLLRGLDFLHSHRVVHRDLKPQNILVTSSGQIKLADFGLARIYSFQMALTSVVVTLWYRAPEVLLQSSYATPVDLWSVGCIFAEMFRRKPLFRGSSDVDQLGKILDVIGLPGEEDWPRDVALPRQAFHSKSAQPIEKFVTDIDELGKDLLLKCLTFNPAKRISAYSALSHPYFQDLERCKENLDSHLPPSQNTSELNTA

| Molecule | relative binding to in vitro expressed cdk6 [1] | relative binding to in vitro expressed cdk4 [2] | inhibition of pRb phosphorylation [3] | also measured |
| --- | --- | --- | --- | --- |
| DAARAGFLDTLQTLLEFQAD (SGSGDAARAGFLDTLQTLLEFQAD) [p18 peptide, peptide derived from p18 corresponding to the 84-103 region of p16] | binds | binds | inhibit pRb phosphorylation |  |
| DAAPEGFLDTLVVLHRAGAR [R87P, p16 84-103 peptide with the R87P substitution] |  |  | does not hamper the function of the peptide |  |
| His-tagged p16 protein with the VV.95,96AA mutations (from UniProt P42771 1-156) |  |  |  | 50% kinase inhibitory concentration, fold increase against wild type His-tagged p16 [4]: 5 fold |
| peptide 21: 36aa synthetic peptide (Penetratin sequence plus 20aa p16 peptide) that carries the VV.95,96AA mutation (RQIKIWFQNRRMKWKKDAAREGFLDTLAALHRAGAR) |  |  |  | block of S-phase entry [5]: significantly less active in vivo; block of S-phase entry ([5]; listed as pep21): only marginal effect; inhibition of cdk-cyclin D kinase activity ([6]; 36aa Penetratin-linked peptides, increasing concentrations (FIG. 6A)): less active |
| AREGFLDTLVVLHRAGAR (SGSGAREGFLDTLVVLHRAGAR) [peptide 6 in FIGS. 5A-C, deletion series peptide, 2 residues removed at the N-terminus of the p16 84-103 peptide] | severely reduced | severely reduced | severely reduced |  |
| FLDTLVVLHRAG [peptide 9, 12 aa peptide of the p16 deletion series] |  |  | able to exert a biological effect which is the same or analogous to that of full length p16 |  |
| Ala92: peptide 6 in which aspartic acid 92 is substituted by alanine (SGSGDAAREGFLATLVVLHRAGAR) | more potent binding | more potent binding | even more efficiently than the wild type peptide 6 | block of cdk4-cyclin D dependent pRb phosphorylation ([6]; listed as Ala92 peptide): almost completely blocked; block of cdk4-cyclin D dependent pRb phosphorylation ([6]; listed as Ala-92): nearly complete |
| FLDTLVVLHRAGAR [peptide 8, 14 aa peptide of the p16 deletion series] |  |  | able to exert a biological effect which is the same or analogous to that of full length p16 |  |
| Ala94: peptide 6 with the single alanine substitution at residue 94 (SGSGDAAREGFLDTAVVLHRAGAR) |  |  |  | block of cdk4-cyclin D dependent pRb phosphorylation [6]: completely inactivates the function of peptide 6 |
| DAAREGFLDTLVVLHGSGAR (SGSGDAAREGFLDTLVVLHGSGAR) [mouse p16 peptide, peptide derived from mouse p16 corresponding to the 84-103 region of p16] | binds | binds | inhibit pRb phosphorylation |  |
| EGFLDTLVVLHRAGAR [peptide 7, 16 aa peptide of the p16 deletion series] |  |  | able to exert a biological effect which is the same or analogous to that of full length p16 |  |
| RQIKIWFQNRRMKWKKDAAREGFLDTLAALHRAGAR [peptide 21 (36 aa synthetic peptide, Penetratin-p16 peptide carrying the VV.95,96AA mutation)] |  |  |  | 50% kinase inhibitory concentration, fold increase [4]: ~5 fold |
| B1 |  |  |  | pRb phosphorylation [7]: do not affect pRb phosphorylation; pRb phosphorylation [8]: do not affect pRb phosphorylation; pRb phosphorylation (dilution series) [9]: the single substitution Ala94 completely inactivates the function of peptide 6 in this assay; level of pRb phosphorylation by Sf9 lysates containing cdk4 and cyclin D [10]: significantly reduces the level of pRb phosphorylation; phosphorylation of the full length Rb protein by Sf9 lysates containing cdk4 and cyclin D [11]: inhibits phosphorylation of the full length Rb protein even more efficiently than the wild type peptide 6 |
